Measured values reported in patent US20200297760A1, “COMPOSITIONS AND METHODS FOR REDUCING IMMUNE RESPONSES AGAINST CHIMERIC ANTIGEN RECEPTORS” (Juno Therapeutics, Inc., priority 2015, published 2020).

How the values were obtained:
Details in all cases: remark: other sources report otherwise
HLA-A*02:01 (human) = test: REVEAL MHC-peptide binding assay, recombinant HLA
HLA-A*03:01 (human) = test: REVEAL MHC-peptide binding assay, recombinant HLA
[1] = molecular target: HLA-A*11:01 (recombinant MHC class I molecule) (human); test: REVEAL MHC-peptide binding assay, recombinant HLA-A*11:01
[2] = molecular target: HLA-B*08:01 (recombinant MHC class I molecule) (human); test: REVEAL MHC-peptide binding assay, recombinant HLA-B*08:01

Binder | In Vitro Score (% of positive control peptide) (HLA-A*02:01 (human)) | In Vitro Score (% of positive control peptide) (HLA-A*03:01 (human)) | In Vitro Score (score, % of positive control peptide) [1] | In Vitro Score (score, % of positive control peptide) [2]
IIFWVKRGA [Synthetic peptide …, listing 1 of 2 here] | – | – | 22.6 | 0.9
IFWVKRGAK [Synthetic peptide …, listing 1 of 2 here] | – | – | 69.7 | 2.2
WVKRGHKKL [Synthetic peptide …, listing 1 of 2 here] | – | – | 2.8 | 47.6
IIFWVKRGR | – | – | 54.5 | 0
IIFWVHRGR | – | – | 77.5 | 0.2
IIFWVKRGL | – | – | 32.4 | 1.7
IIFWVSRGR | – | – | 68.9 | 0
IIFWVKRGN [Synthetic peptide …, listing 1 of 2 here] | – | – | 42.1 | 0.9
IFWVQRGAK [Synthetic peptide …, listing 1 of 2 here] | – | – | 61.3 | 0.2
WVQRGRKKL [Synthetic peptide …, listing 2 of 2 here] | – | – | 12.8 | 45.1
AFIIFWVHR | – | – | 34.9 | 0.3
IFWVKRGSK | – | – | 47.9 | 1.2
VAFIIFWVS [Synthetic peptide …, listing 1 of 2 here] | – | – | 25.1 | 0.1
IFWVKRGLK | – | – | 61.1 | 58.3
IIFWVLRGR [Synthetic peptide …, listing 2 of 2 here] | – | – | 35.2 | 0.4
WVKRGAKKL [Synthetic peptide …, listing 2 of 2 here] | – | – | 4.6 | 34.1
IIFWVQRGR | – | – | 72.8 | 0.1
IFWVHRGRK | – | – | 36.6 | 0.1
FIIFWVHRG | – | – | 0.9 | 0.2
IFWVKRGHK [Synthetic peptide …, listing 2 of 2 here] | – | – | 30.9 | 3.2
WVARGRKKL [Synthetic peptide …, listing 1 of 2 here] | – | – | 13.8 | 32.4
IIFWVQRGA [Synthetic peptide …, listing 2 of 2 here] | – | – | 56.5 | 0.2
WVKRGNKKL [Synthetic peptide …, listing 2 of 2 here] | – | – | 4.1 | 65.9

Results, then the binder that gave them:

In Vitro Score (% of positive control peptide) (HLA-A*02:01 (human)) | In Vitro Score (% of positive control peptide) (HLA-A*03:01 (human)) | In Vitro Score (score, % of positive control peptide) [1] | In Vitro Score (score, % of positive control peptide) [2] | Binder
4.7 | 4.1 | – | – | WVKRGAKKL […, listing 1 of 2 here]
16.1 | 23.2 | – | – | IFWVQRGNK […, listing 1 of 2 here]
– | 2.8 | – | – | IIFWVLRGR […, listing 1 of 2 here]
– | 4.9 | – | – | WVQRGRKKL […, listing 1 of 2 here]
– | 4.3 | – | – | IIFWVKRGN […, listing 2 of 2 here]
0.7 | 1.5 | – | – | VAFIIFWVK […, listing 1 of 2 here]
2.4 | 0.9 | – | – | WVKRGNKKL […, listing 1 of 2 here]
2.2 | – | – | – | IFWVKRGHK […, listing 1 of 2 here]
95.3 | 2.7 | – | – | IIFWVQRGA […, listing 1 of 2 here]
85.9 | 42.9 | – | – | IIFWVKRGA […, listing 2 of 2 here]
11.7 | 17 | – | – | IFWVQRGAK […, listing 2 of 2 here]
13.8 | 22 | – | – | IFWVKRGAK […, listing 2 of 2 here]
– | – | 67.5 | 0.1 | IFWVQRGNK [Synthetic peptide …, listing 2 of 2 here]
– | – | 109 | 0.3 | VAFIIFWVK [Synthetic peptide …, listing 2 of 2 here]
– | – | 45.9 | 0.1 | IFWVKRGNK [Synthetic peptide …, listing 1 of 2 here]
– | – | 39.2 | 0 | IFWVSRGRK
3.5 | – | – | – | IFWVKRGNK […, listing 2 of 2 here]
– | – | 70.6 | 0.3 | IIFWVARGR [Synthetic peptide …, listing 1 of 2 here]
– | – | – | 0.4 | IIFWVKRGS
– | – | 128 | 0 | IFWVQRGRK
– | 1.3 | – | – | WVARGRKKL […, listing 2 of 2 here]
3.9 | 1.4 | – | – | WVKRGHKKL […, listing 2 of 2 here]
4.3 | 1.5 | – | – | WVQRGNKKL […, listing 1 of 2 here]
– | – | 11.8 | 56.1 | WVKRGSKKL
– | – | 10.7 | 32 | WVQRGNKKL [Synthetic peptide …, listing 2 of 2 here]
– | – | 34.9 | 0 | IFWVARGRK
– | – | 54 | 0.3 | AFIIFWVSR
70.6 | 0.7 | – | – | VAFIIFWVS […, listing 2 of 2 here]
– | – | 51.8 | 0.2 | AFIIFWVAR
– | 18.6 | – | – | IIFWVARGR […, listing 2 of 2 here]
